# Laboratory results from patent US20240376151A1, “STAPLED PEPTIDES AND METHODS THEREOF” (FOG PHARMACEUTICALS, INC., priority 2022, published 2024).
# Molecular target: T1, beta-catenin (Homo sapiens, UniProt P35222)
# T1 construct: made in house; host or cells: E. coli BL21 (DE3) pLysS
# T1 sequence (P35222 134-665): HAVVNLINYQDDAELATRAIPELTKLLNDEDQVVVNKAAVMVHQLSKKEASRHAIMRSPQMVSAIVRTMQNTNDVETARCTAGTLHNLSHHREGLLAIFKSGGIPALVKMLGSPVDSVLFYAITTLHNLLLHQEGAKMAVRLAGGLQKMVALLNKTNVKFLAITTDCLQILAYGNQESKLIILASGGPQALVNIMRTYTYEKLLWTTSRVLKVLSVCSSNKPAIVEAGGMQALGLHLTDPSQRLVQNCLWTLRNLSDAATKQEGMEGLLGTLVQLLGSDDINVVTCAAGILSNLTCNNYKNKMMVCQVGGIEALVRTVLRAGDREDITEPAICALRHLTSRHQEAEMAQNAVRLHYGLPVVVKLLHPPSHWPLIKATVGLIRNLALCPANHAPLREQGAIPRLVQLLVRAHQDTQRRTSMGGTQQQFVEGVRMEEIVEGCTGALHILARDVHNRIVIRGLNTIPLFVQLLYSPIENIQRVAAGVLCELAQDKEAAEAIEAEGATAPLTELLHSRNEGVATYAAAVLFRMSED
# Experiment: Phage Library Screening with NGS, beta-catenin
# Type: binding
# Conditions: for Target Concentration 10 (phage screen NGS readout): beta-catenin target concentration 10; for Target Concentration 10 (phage screen NGS readout) / Target Concentration 30 (phage screen NGS readout) / Target Concentration 100 (phage screen NGS readout) / Target Concentration 300 (phage screen NGS readout): no competitor; for Target Concentration 30 (phage screen NGS readout): beta-catenin target concentration 30; for Target Concentration 100 (phage screen NGS readout): beta-catenin target concentration 100; for Target Concentration 300 (phage screen NGS readout): beta-catenin target concentration 300; for Target Concentration 1000 (phage screen NGS readout): beta-catenin target concentration 1000
Sequence,Target Concentration BLANK (phage screen NGS readout) (first column),Target Concentration BLANK (phage screen NGS readout) (fourth column),Target Concentration BLANK (phage screen NGS readout) (second column),Target Concentration BLANK (phage screen NGS readout) (third column),Target Concentration 10 (phage screen NGS readout),Target Concentration 30 (phage screen NGS readout),Target Concentration 100 (phage screen NGS readout),Target Concentration 300 (phage screen NGS readout),Target Concentration 1000 (phage screen NGS readout) (first 1000 column),Target Concentration 1000 (phage screen NGS readout) (second 1000 column)
DPAILDCQIAAIECEFA,0,1,0,0,0,22,76,68,139,56
DPAILDCQLAAIDCVYT,0,0,0,0,3,21,67,168,201,114
DPAILDCQLAAMDCSTW,0,0,0,0,0,6,22,21,25,55
DPAILDCSIAAIDCAYS,0,0,0,0,0,0,16,42,39,29
DPAILECHMAAFECYIE,0,0,0,0,8,2,20,59,86,41
DPAILECHVAALDCQMW,0,0,2,0,0,2,40,55,98,81
DPAILECYEAAFECQYM,0,0,0,0,7,8,20,49,41,39
DPAILNCHMAAWDCNFY,0,0,0,1,0,7,14,57,37,59
DPAILNCHVAAWNCHSF,0,0,0,0,0,0,1,8,4,23
DPAILQCYEAAFSCHYQ,0,0,0,0,0,9,40,54,39,42
DPAILTCYEAAFTCQYQ,0,0,1,0,0,7,18,71,69,105
DPAIMACYEAAYLCDYI,1,1,0,0,2,4,29,85,111,150
DPAIMACYQAAFWCQYN,1,0,0,1,0,0,4,27,29,18
DPALWNCDHAALLCDHQ,0,0,0,0,0,0,10,8,13,10
DPAMIQCQWAAEHCELI,0,0,1,0,0,0,4,33,19,42
